This assay deals with Rubisco (Chlamydomonas reinhardtii (endogenous, purified from cells)) (UniProt P00877). Description: fluorescence correlation spectroscopy; 20 nM EPYC1-GFP mixed with 2 μM Rubisco (no phase separation at this concentration); diffusion coefficient of EPYC1-GFP from a single-species fit.

This passage reports diffusion coefficient of EPYC1-GFP with Rubisco (60 μm^2/s without Rubisco) results from article doi:10.1101/2025.10.09.681382.

Consider “EPYC1-GFP, unphosphorylated (mock-treated) (natural protein)”, for which the diffusion coefficient of EPYC1-GFP with Rubisco (60 μm^2/s without Rubisco) turned out to be 41 μm^2/s.
